Measured values reported in article PMC2874613 (Traffic (Copenhagen, Denmark), 2010).

target: T1, GST-[1-313]GGA3 (UniProt Q9NZ52 1-313); experiment: pull-down
T1 sequence (looked up): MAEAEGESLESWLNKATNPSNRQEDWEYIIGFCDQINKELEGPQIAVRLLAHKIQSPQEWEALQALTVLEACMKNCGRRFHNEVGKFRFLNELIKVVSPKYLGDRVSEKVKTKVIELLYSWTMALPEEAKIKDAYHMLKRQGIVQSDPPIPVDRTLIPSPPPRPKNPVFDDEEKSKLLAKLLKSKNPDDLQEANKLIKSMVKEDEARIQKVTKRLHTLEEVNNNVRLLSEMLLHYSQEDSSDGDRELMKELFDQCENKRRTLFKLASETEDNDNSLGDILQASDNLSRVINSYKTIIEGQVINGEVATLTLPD

Binder	percent of total Arf precipitated with GST-[1-313]GGA3
Arf1 expressed in HEK293T cells (human Arf1/pcDNA3.1) (natural protein) not shown	< 0.15 % of the total
Arf1-GFP expressed in HEK293T cells (human Arf1/pEGFPN1) (natural protein) not shown	> 0.3 % of the total
Arf1-HA expressed in HEK293T cells (natural protein) not shown	< 0.15 % of the total
